According to paper PMC3187938:

Target: affinity-matured, humanized, antiprostate stem-cell antigen (PSCA) minibody (clone A11.1 2C3)
Assay: SEC

B1: affinity-matured, humanized, antiprostate stem-cell antigen (PSCA) minibody (clone A11.1 2C3) (antibody, V domains shown)
VH: EVQLVEYGGGLVQPGGSLRLSCAASGFNIKDYYIHWVRQAPGKGLEWVAWIDPENGDTEFVPKFQGRATMSADTSKNTAYLQMNSLRAEDTAVYYCKTGGFWGQGTLVTVSS
VL: DIQLTQSPSTLSASMGDRVTITCSASSSVRFIHWYQQKPGKAPKRLIYDTSKLASGVPSRFSGSGSGTDFTLTISSLQPEDFATYYCQQWGSSPFTFGQGTKVEIK
With B1 the stoichiometry N was 2.
